Conditions: ubiquitination at K213

**Q.** For IGF2BP3: K213R, which other is on record?
**A.** decreases

Source: publication PMC10599278
